Here are results for one substance from publication doi:10.1101/2022.06.10.495428.

The target of test [1] is Influenza A/Zhejiang/DTID-ZJU01/2013 (H7N9) polymerase heterotrimer (influenza A/Zhejiang/DTID-ZJU01/2013 (H7N9)) (UniProt M9TI86). Briefly: SEC-MALS.
For test [2] the target is unchanged. Briefly: cryo-EM structure.

Usually stoichiometry N stands for a count of units in the complex or per binding partner. Regarding “Influenza A/Zhejiang/DTID-ZJU01/2013 (H7N9) polymerase heterotrimer (from UniProt M9TI86;M9TLW3;X5F427) (complex)”, the stoichiometry N in test [1] and in test [2] was 2 in each case.
